From article PMC12126490 (2025)

Molecular target: chromoshadow domain of HP1α (HP1αCSD, aa 109–185 of HP1α) (human, UniProt P45973 109-185)
Sequence (P45973 109-185): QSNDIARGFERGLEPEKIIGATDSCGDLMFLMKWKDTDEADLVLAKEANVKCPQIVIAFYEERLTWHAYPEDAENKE

Kd: 1600 nM
Binder: RKVPRVSLERL [HP1 box-containing KAP1 peptide (KAP1_(Hbox), aa 483–493 of KAP1)]
